Assay results published in US20120226024A1.
Read-outs that look alike come from different tables or passages of the source.

How the values were obtained:
[1] = biological target: Fucα1,6GlcNAc-CD52 (17) (human) (UniProt P31358)
[2] = biological target: Fucα1,6GlcNAc-CD52 (17) (human) (UniProt P31358); remark: listed apart in the source

Substance	transglycosylation with sialoglycan oxazoline (12), yield of 18 [1] [%]	other results
Endo-F3 D126Q mutant (enzyme)	> 90	–
Endo-F3 D126A mutant (enzyme)	> 90	–
Endo-F3 (Endoglycosidase-F3), wild type (enzyme)	–	transglycosylation with sialoglycan oxazoline (12), isolated yield of 18 [2]: 55%
Endo-F2 (Endoglycosidase-F2), wild type (enzyme)	–	transglycosylation with sialoglycan oxazoline (12), yield of 18 [2]: 25%
